Assay results from patent US20260167714A1 (COHERUS BIOSCIENCES, published 2026).
Residue numbers refer to the chain shown, from its start. Names may count otherwise.

Key:
[1] = target: T1, human ILT4 expressed on cells (human, UniProt Q8N423 22-597); assay: cell-based or functional assay
[2] = target: T1, human ILT4 expressed on cells; assay: cell-based or functional assay; remark: listed apart in the source
[3] = target: T1, human ILT4 expressed on cells; assay: flow based HLA-G blocking assay
[4] = target: T2, recombinant human ILT4 (LILRB2) (human, UniProt Q8N423 22-460); assay: SPR, high resolution kinetics; reference Hz156
T2 construct: Bought protein (Acro Biosystems or R&D Systems); also called ILTR4
T2 sequence (Q8N423 other isoform, or with tags, fused parts or gaps limits assumed): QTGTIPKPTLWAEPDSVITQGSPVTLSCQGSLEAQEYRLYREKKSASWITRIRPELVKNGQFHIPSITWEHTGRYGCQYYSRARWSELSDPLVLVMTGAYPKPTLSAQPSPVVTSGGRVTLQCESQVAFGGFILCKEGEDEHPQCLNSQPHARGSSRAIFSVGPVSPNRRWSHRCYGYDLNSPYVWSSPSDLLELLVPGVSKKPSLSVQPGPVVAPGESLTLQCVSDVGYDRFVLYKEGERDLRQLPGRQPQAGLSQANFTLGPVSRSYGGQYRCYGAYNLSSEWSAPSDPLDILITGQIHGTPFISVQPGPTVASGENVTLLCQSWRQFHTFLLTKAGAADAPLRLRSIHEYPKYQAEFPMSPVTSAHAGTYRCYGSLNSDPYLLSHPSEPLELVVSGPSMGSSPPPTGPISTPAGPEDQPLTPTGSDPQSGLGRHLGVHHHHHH

[5] = target: T1, human ILT4 expressed on cells; assay: flow cytometry, AF647-labelled mAb on ILT4-CHO cells
Experimental: (§1) AF647-Hz45.01-LALA and AF647-Hz156.03-LALA at various concentrations (0-10 μg/ml) were incubated with ILT4-CHO cells and analyzed by flow cytometry.

[6] = target: T2, recombinant human ILT4 (LILRB2); assay: SPR, high resolution kinetics, triplicate, LALA antibody; 95% CI in parentheses
[7] = target: T1, human ILT4 expressed on cells; assay: flow cytometry, blockade of PE-HLA-G tetramer binding to ILT4-CHO cells, Experiment 1
[8] = target: T1, human ILT4 expressed on cells; assay: flow cytometry, blockade of PE-HLA-G tetramer binding to ILT4-CHO cells, Experiment 2
[9] = target: T1, human ILT4 expressed on cells; assay: flow cytometry on ILT4-CHO cells, unlabelled mAb titrated; competitor AF647-Hz45.01-LALA
Experimental: (§2) Competition binding assays were performed. […] Binding activities were measured by flow cytometry.
Anti-human ILT4 mAbs at various concentrations (0-15 μg/ml) were incubated with ILT4-CHO cells. Cells were washed and stained with AF647-Hz45.01-LALA. Cells were analyzed by flow cytometry.

[10] = target: T1, human ILT4 expressed on cells; assay: flow cytometry on ILT4-CHO cells, unlabelled mAb titrated; competitor AF647-Hz156.03-LALA
Experimental: as §2
Anti-human ILT4 mAbs at various concentrations (0-15 μg/ml) were incubated with ILT4-CHO cells. Cells were washed and stained with AF647-Hz156.03-LALA. Cells were analyzed by flow cytometry.

[11] = target: T1, human ILT4 expressed on cells; assay: flow cytometry, direct binding of AF647-labelled antibody (0-10 µg/ml) to ILT4-CHO cells
Experimental: as §1

[12] = target: T2, recombinant human ILT4 (LILRB2); assay: SPR, Biacore 8K, mAb captured on anti-human Fc, LILRB2 at 100 nM; legend: +++ binding (1-2 nM KD)
Experimental: (§3) SPR was used to determine the specificity of four humanized anti-ILT4 mAbs for binding to LILRB2 and to determine any cross-reactivity with nine other LILRA and LILRB family members. LILR proteins were purchased from Acro Biosystems or R&D Systems, with sequence provided below. The studies were performed with a Biacore 8K instrument using a CM4 sensor chip with a running buffer of HBS-P+, 100 μg/mL BSA. Anti-human Fc specific capture surfaces were prepared using standard amine coupling chemistry. MAb was captured to flow cell 2 with flow cell 1 serving as the reference flow cell. Each of the nine family members and LILRB2 were injected at 100 nM at 30 μL/min for 90 sec with 240 sec of dissociation. […] All sensorgrams were doubled-referenced during processing of the data.

[13] = target: T1, human ILT4 expressed on cells; assay: flow cytometry, blockade of PE-HLA-A tetramer (5 ug/ml) binding to ILT4-CHO cells, Experiment 1 (table title prints HLA-G)
[14] = target: T1, human ILT4 expressed on cells; assay: flow cytometry, blockade of PE-HLA-A tetramer (5 ug/ml) binding to ILT4-CHO cells, Experiment 3 (table title prints HLA-G)
[15] = target: T2, recombinant human ILT4 (LILRB2); assay: SPR, Biacore T200, medium resolution; koff held at its limit of 4.27e-5 s^-1
Procedure, shortened: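 Mouse, chimeric or humanized mAbs captured on anti-Fc surfaces (CM4 chip); ILT4 injected at 101 to 0.79 nM, 2-fold series, 90 s association, 1200 s dissociation. Run at 25° C in HBS-P+ pH 7.4 with 100 μg/ml BSA; double-referenced global 1:1 fit with mass-transport term, KD=koff/kon.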

[16] = target: T2, recombinant human ILT4 (LILRB2); assay: SPR, Biacore 8K, mAb captured on anti-human Fc, LILRB2 at 100 nM; legend: ++++ tight binding (<100 pM KD)
Experimental: as §3

T1 sequence (Q8N423 22-597): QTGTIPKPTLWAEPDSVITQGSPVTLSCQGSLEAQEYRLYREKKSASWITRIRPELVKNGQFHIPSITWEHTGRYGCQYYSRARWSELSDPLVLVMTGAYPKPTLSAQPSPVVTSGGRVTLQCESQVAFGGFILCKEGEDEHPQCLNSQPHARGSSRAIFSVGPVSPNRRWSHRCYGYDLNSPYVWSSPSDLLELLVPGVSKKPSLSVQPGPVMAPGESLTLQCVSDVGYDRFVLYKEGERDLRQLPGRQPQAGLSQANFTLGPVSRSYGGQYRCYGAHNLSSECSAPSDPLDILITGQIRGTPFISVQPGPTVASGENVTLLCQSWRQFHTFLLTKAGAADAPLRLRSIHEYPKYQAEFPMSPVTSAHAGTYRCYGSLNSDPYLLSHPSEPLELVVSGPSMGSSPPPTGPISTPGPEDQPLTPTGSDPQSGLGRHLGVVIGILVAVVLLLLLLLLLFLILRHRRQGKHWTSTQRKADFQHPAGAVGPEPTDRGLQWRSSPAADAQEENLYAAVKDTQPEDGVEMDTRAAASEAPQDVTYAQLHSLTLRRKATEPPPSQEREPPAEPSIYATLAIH

B1: Hz45.01-LALA (antibody, human IgG1, kappa, L234A L235A, V domains shown)
VH: QVQLVQSGAEVKKPGASVKVSCKASGYTFTDYYMNWVRQAPGQRLEWIGDINPNNGGTSYNQKFKGRATITVDTSASTAYMELSSLRSEDTAVYYCARGGAELTGTYWYFDVWGQGTTVTVSS
VL: DIQMTQSPSSLSASVGDRVTITCRASENIYSNLAWYQQKPGKAPKVLVYGATNLADGVPSRFSGSGSGTEYTLTISSLQPEDFATYYCQHFWDSPFTFGGGTKVEIKR
notes: Humanized L45S4, human IgG1 L234A/L235A, kappa; also called Humanized 45_01; Hu IgG 45_01 LALA
B1 was tested, and the “EC50 value of TNFa production, donor 4” value [1] was 0.0138 µg/mL, the “EC50 value of TNFa production, donor 5” value [1] was 0.0185 µg/mL and the “EC50 value of IL-6 production, donor 4” value [2] was 0.00603 µg/mL. The “EC50 value of IL-6 production, donor 5” value [2] was 0.0159 µg/mL, the IC50 [3] was 0.092 µg/mL and the “fold faster off-rate than Hz156” value [4] was 29 fold. It also gave an EC50 [5] of 162 µg/mL, a kon [6] of 3.45e+06 M⁻¹ s⁻¹ and an IC50 [7] of 0.198 µg/mL. It also gave an IC50 [8] of 0.119 µg/mL, an IC50 [9] of 0.31 µg/mL and an IC50 [10] of 0.381 µg/mL. The “EC50 (read off the curve)” value [11] was ~0.2 µg/mL, the KD [12] was 1 to 2 nM and the IC50 [13] was 0.106 µg/mL. It also gave an IC50 [14] of 0.109 µg/mL.

B2: Hz156.03-LALA (antibody, human IgG1, kappa, L234A L235A, V domains shown)
VH: QVQLVQSGAEVKKPGSSVKVSCKASGYTFTDYYMNWVRQAPGQGLEWIARIYPGVYRTHYNEKFKDRVTLTADKSTSTAYMELSSLRSEDTAVYYCARSGYYGGTYEEDAMDYWGQGTTVTVSS
VL: B1 VL with V46L, G50A, N53S, E70D, H90N, S94T, F96Y, G100Q
notes: Humanized L156S3, human IgG1 L234A/L235A, kappa
For B2, the “EC50 value of TNFa production, donor 4” value [1] was 0.00724 µg/mL, the “EC50 value of TNFa production, donor 5” value [1] was 0.0236 µg/mL and the “EC50 value of IL-6 production, donor 4” value [2] was 0.0082 µg/mL. The “EC50 value of IL-6 production, donor 5” value [2] was 0.0213 µg/mL, the IC50 [3] was 0.212 µg/mL and the EC50 [5] was 248 µg/mL. The Kd [15] was ≤ 0.086 nM, the koff [15] was ≤ 4.27e-05 s⁻¹ and the kon [6] was 3.22e+06 M⁻¹ s⁻¹. The IC50 [7] was 0.19 µg/mL, the IC50 [8] was 0.14 µg/mL and the IC50 [9] was 0.245 µg/mL. The IC50 [10] was 0.422 µg/mL, the “EC50 (read off the curve)” value [11] was ~0.2 µg/mL and the KD [16] was < 0.1 nM. It also gave an IC50 [13] of 0.149 µg/mL and an IC50 [14] of 0.164 µg/mL.
